B1: 17-bp consensus E-box, EMSA probe (dsDNA)
DNA 1: CTAGTCCCACGTGTGAG
DNA 2: CTCACACGTGGGACTAG
B2: 17-bp consensus E-box, BLI probe (dsDNA)
DNA 1: CTAGTCCCACGTGTGAG
DNA 2: CTCACACGTGGGACTAG

Experiments:
CgPho4 DBD [1] = molecular target: T1, CgPho4 DBD (Candida glabrata, UniProt Q6FVW0 452-533); test: EMSA; 5 mM MgCl2, 1 mM EDTA; 4 C; BLI: 1x PBS pH 7.4, 0.01% BSA, 0.002% Tween-20, 0.005% sodium azide, 30 C; EMSA: 20 mM Tris-HCl pH 8, 150 mM KCl, 10% glycerol, 5 mM MgCl2, 1 mM EDTA, 1 mM DTT, 4 C; settings: protein: recombinant; tags: C-terminal 6xHis; chain copies: 2; label: IR700; blunt
T1 sequence: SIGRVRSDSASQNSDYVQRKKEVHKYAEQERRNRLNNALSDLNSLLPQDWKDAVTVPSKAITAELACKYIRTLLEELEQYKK

ScPho4 DBD [2] = molecular target: T2, ScPho4 DBD (Saccharomyces cerevisiae, UniProt P07270 236-312); test: as above; settings: protein: recombinant; tags: C-terminal 6xHis; chain copies: 2; label: IR700; blunt
T2 sequence: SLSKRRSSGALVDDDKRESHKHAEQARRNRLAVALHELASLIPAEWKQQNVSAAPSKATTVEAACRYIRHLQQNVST

CgPho4 DBD [3] = molecular target: T1, CgPho4 DBD; test: BLI; mean of 5 replicates; 30 C; BLI: 1x PBS pH 7.4, 0.01% BSA, 0.002% Tween-20, 0.005% sodium azide, 30 C; EMSA: 20 mM Tris-HCl pH 8, 150 mM KCl, 10% glycerol, 5 mM MgCl2, 1 mM EDTA, 1 mM DTT, 4 C; settings: protein: recombinant; tags: C-terminal 6xHis; chain copies: 2; blunt
ScPho4 DBD [4] = molecular target: T2, ScPho4 DBD; test: as above; settings: protein: recombinant; tags: C-terminal 6xHis; chain copies: 2; blunt

Row | Binder | Kd (CgPho4 DBD [1]) | Kd (ScPho4 DBD [2]) | Kd (CgPho4 DBD [3]) | Kd (ScPho4 DBD [4])
1 | B1 | 1.9 nM | 5.5 nM | – | –
2 | B2 | – | – | 1.2 nM | 5.2 nM
